One experiment addresses T1, human LAG-3 (60AXE) (human, UniProt P18627 23-450, limits assumed).
T1 construct: Lot 60AXE is not described further
T1 sequence (looked up): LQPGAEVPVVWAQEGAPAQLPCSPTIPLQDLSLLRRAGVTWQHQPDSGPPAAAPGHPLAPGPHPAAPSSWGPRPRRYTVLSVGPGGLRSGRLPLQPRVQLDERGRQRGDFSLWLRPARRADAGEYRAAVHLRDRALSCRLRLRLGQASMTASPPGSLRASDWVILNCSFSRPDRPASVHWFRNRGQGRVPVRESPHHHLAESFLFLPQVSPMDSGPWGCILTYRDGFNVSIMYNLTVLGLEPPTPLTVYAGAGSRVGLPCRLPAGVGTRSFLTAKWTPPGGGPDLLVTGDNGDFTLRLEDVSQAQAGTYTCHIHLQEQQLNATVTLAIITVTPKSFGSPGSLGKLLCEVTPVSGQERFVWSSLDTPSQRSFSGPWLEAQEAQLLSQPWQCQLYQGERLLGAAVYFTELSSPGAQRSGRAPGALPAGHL
The experiment in a line: SPR (Biacore T200 or 4000), antibody captured via anti-human Fc, antigen as analyte. As for the experimental part: (§1) Binding affinities were measured using a Biacore T200 or Biacore 4000 biosensor (GE Healthcare, Chicago, Ill.). The following running buffer, 10 mM HEPES, 150 mM NaCl, 0.05% v/v Surfactant P20, 3 mM EDTA (GE Healthcare, BR100669, Chicago, Ill.), was used for immobilization, sample dilution and data collection. All experiments were performed at 25° C. Antigen binding to antibodies captured via an anti-human Fc antibody was measured using a Series S Sensor Chip CM5 (GE Healthcare, 29149603, Chicago, Ill.). An anti-human Fc antibody was immobilized on all surfaces of the chip according to the instructions in the Human Antibody Capture Kit (GE Healthcare, BR100839, Chicago, Ill.) and the Amine Coupling Kit (GE Healthcare, BR100633, Chicago, Ill.). […] After the antigen injections the dissociation of the interaction was monitored for 15 minutes. Between binding cycles the antibody and antigen were removed from the chip with a 30 second injection of 3 M MgCl₂.
(§2) The data were processed and fit using Biacore T200 Evaluation Software version 2.0 or Biacore 4000 Evaluation Software version 1.1 (GE Healthcare, Chicago, Ill.). The data were “double referenced” by subtracting the response from a negative control flowcell and subtracting the response from a buffer injection or the average response from two buffer injections. The data were then fit with the ‘1:1 Binding’ model to determine the association rate constant, kₐ (M⁻¹s⁻¹, where “M” equals molar and “s” equals seconds) and the dissociation rate constant, kd (s⁻¹). These rate constants were used to calculate the equilibrium dissociation constant, KD (M)=[…].

Experiment [1] concerns the target T2, Human PD1 (50AFR), [VEGF leader]-Sino-Bio-PD-1_H-[His9G] (human, UniProt Q15116 25-167).
T2 construct: Expressed with a VEGF leader; also called PD-1-His (50AFR)
The description is as above. As for the experimental part: as §1, §2

A further experiment concerns the target T3, human TIGIT (94AGV) (human, UniProt Q495A1 22-141, limits assumed).
T3 construct: Lot 94AGV is not described further
T3 sequence (looked up): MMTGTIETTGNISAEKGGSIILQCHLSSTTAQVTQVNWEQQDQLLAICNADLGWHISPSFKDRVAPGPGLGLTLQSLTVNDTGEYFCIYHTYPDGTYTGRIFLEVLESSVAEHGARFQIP
Described as above. The protocol: as §1, §2

Experiment [2] addresses T4, polyhistidine-tagged human PD-1 (hPD1-His, 98AFK) (human, UniProt Q15116 25-167, limits assumed).
T4 construct: also called human PD1-His; Human PD-1-His
In words: SPR solution affinity; reference Humanized 08A IgG4 S61N (98AIO). The protocol:
(§3) The titration series were incubated for 16-24 hours to reach equilibrium at room temperature. The unbound sites were measured using a BIAcore chip immobilized with antigen in a competition mode where SPR signal detected corresponded to unbound antibody.
(§4) The titration series following >16 hr. incubation were injected over the sensor chip immobilized with hPD1-His (above). Free, unbound antibodies concentrations were measured as proportional to RU after 120 seconds (for 500 pM mAb series) or 400 seconds (for 100 pM mAb series) of injection at 10 μL/min. After each cycle, surfaces were regenerated with a 30 second injection of 1:1 mixture of 3M MgCl₂ and pH 2.0 10 mM glycine at 30 μL/min.

For experiment [3], the target named is T4, polyhistidine-tagged human PD-1 …. The experiment in a line: SPR (Biacore T200), mAb captured on anti-Fc chip; reference Mouse 08A. As for the experimental part:
(§5) A surface plasmon resonance (SPR)-based assay utilizing capture mode was used to determine the binding kinetics and affinities of anti-PD-1 antibodies against polyhistidine-tagged human PD-1 (hPD1-His, 98AFK). Following manufacture instructions, a series S sensor chip CM5 (GE Healthcare, BR100530) was activated using an amine-coupling kit (GE Healthcare, BR100050). Either human capture kit (anti-human Fc, 25 μg/mL, GE Healthcare, BR100839) or mouse capture kit (anti-mouse Fc, 30 μg/mL, GE Healthcare, BR100838) antibody diluted in the supplied pH 5.0, 10 mM sodium acetate buffer was immobilized onto the activated surface for 7 minutes. After immobilization, surfaces were deactivated with 1M ethanolamine/HCl (pH 8.5) for 7 minutes.
(§6) Binding kinetics were measured on a biacore T200 in HBS-EP+ (0.01 M HEPES pH 7.4, 0.15 M NaCl, 3 mM EDTA, 0.05% v/v Surfactant P20) running buffer at 25° C. Antibodies were captured either on mouse or human Fc capture surfaces at 10 μL/min flow rate. Antibodies were captured on flow cells 2, 3 and 4. Flow cell 1 was used as a reference with no antibody captured. A 6-point, 2-fold serial dilutions of the analyte 98AFK (hPD1-His), starting at 20 nM, were prepared in the running buffer (HBS-EP+). Two buffer blanks were included for double referencing. Titration series were injected for 3 minutes at 50 μl/min followed by 600 seconds of dissociation. After each cycle, surfaces were regenerated with a 30 second injection of 3M MgCl₂ at […] on the anti-human Fc chip or 180 seconds of 10 mM Glycine pH 1.7 at 10 μl/min on the anti-mouse Fc chip.
(§7) Sensorgram processing and data analysis were performed with Biacore T200 Evaluation Software Version 2.0.4 (GE Healthcare). […] Processed curves were globally fitted to a 1:1 binding model to determine the association rate constant, kₒₙ (M⁻¹s⁻¹, where “M” equals molar and “s” equals seconds) and the dissociation rate constant, koff (s⁻¹). These rate constants were used to calculate the equilibrium dissociation constant, KD (M)=koff/kₒₙ.
(In general: In SPR one partner is held on a chip, and binding of the other changes the refractive index at the surface.)

Experiment [4] shares this target. In words: SPR solution affinity (Biacore T200, competition mode, equilibrium titration). The protocol: as §3, §4
The target is the same in experiment [5]. In words: SPR (Biacore T200), mAb captured on anti-Fc chip, hPD1-His as analyte. As for the experimental part: as §5, §6, §7

T4 sequence (Q15116 25-167 limits assumed): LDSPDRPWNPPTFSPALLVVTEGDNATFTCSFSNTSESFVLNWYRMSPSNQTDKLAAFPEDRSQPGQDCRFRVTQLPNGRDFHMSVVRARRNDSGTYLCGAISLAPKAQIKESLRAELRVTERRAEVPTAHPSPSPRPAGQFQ
T2 sequence (Q15116 25-167): as the sequence (Q15116 25-167 limits assumed) above

B1: anti-PD-1/LAG-3/TIGIT trispecific antibody (TsAbY31W) (Lot 30BCM) (other)
heavy 1: EVQLVQSGAEVKKPGASVKVSCKASGYTFTSYYLYWVRQAPGQGLEWIGGVNPSNAGTNFNEKFKSRVTLTVDTSISTAYMELSRLRSDDTAVYYCTRRLSHYDGGFDYWGQGTTVTVSSASTKGPSVFPLAPSSKSTSGGTAALGCEVTDYFPEPVTVSWNSGALTSGVHTFPAVLESSGLYSLLSVVTVPSSSLGTQTYICNVNHKPSNTKVDKKVEPKSCDKTHTCPPCPAPEAAGGPSVFLFPPKPKDTLMISRTPEVTCVVVSVSHEDPEVKFNWYVDGVEVHNAKTKPREEQYNSTYRVVSVLTVLHQDWLNGKEYKCKVSNKALPAPIEKTISKAKGQPREPQVYVYPPSRDELTKNQVSLTCLVKGFYPSDIAVEWESNGQPENNYKTTPPVLDSDGSFALVSKLTVDKSRWQQGNVFSCSVMHEALHNHYTQKSLSLSPGGGGSGGGSGGGSGGGSDIQMTQSPSSLSASVGDRVTITCRASEHIYSYLSWYQQKPGKVPKLLIYNAKTLAEGVPSRFSGSGSGTDFTLTISSLQPEDVATYYCQHHFGSPLTFGQGTRLEIKGGSSRSSSSGGGGSGGGGSGSEVQLVQSGAEVKKPGSSVKVSCKASGYTFSSYVMHWVRQAPGQGLEWIGYIDPYNDGAKYAQKFQGRVTLTSDKSTSTAYMELSSLRSEDTAVYYCARGGPYGWYFDVWGQGTTVTVSS
light 1: DIVMTQTPLSLSVTPGQPASISCRASKSVSTSGFSYLHWYLQKPGQPPQLLIFLSKYRSSGVPDRFSGSGSGTDFTLKISRVEAEDVGVYYCSQAYHLPLTFGQGTKLEIKRTVAAPSVFIFPPSDERLKSGTASVVCLLNNFYPREAKVQWKVDNALQSGNSQESVTEQDSKDSTYSLSSRLTLSKADYEKHKVYACEVTHQGLSSPVTKSFNRGEC
heavy 2: QMQLVQSGPEVKKPGTSVKVSCKASGYTFTDYNVDWVRQARGQRLEWIGDINPNDGGTIYAQKFQERVTITVDKSTSTAYMELSSLRSEDTAVYYCARNYRWFGAMDHWGQGTTVTVSSASTKGPSVFPLAPSSKSTSGGTAALGCLVKDYFPEPVTVSWNSGALTSGVHTFPAVLQSSGLYKLSSVVTVPSSSLGTQTYICNVNHKPSNTKVDKKVEPKSCDKTHTCPPCPAPEAAGGPSVFLFPPKPKDTLMISRTPEVTCVVVSVSHEDPEVKFNWYVDGVEVHNAKTKPREEQYNSTYRVVSVLTVLHQDWLNGKEYKCKVSNKALPAPIEKTISKAKGQPREPQVYVLPPSRDELTKNQVSLLCLVKGFYPSDIAVEWESNGQPENNYLTWPPVLDSDGSFFLYSKLTVDKSRWQQGNVFSCSVMHEALHNHYTQKSLSLSPGGGGSGGGSGGGSGGGSDIQMTQSPSSLSASVGDRVTITCRASEHIYSYLSWYQQKPGKVPKLLIYNAKTLAEGVPSRFSGSGSGTDFTLTISSLQPEDVATYYCQHHFGSPLTFGQGTRLEIKGGSSRSSSSGGGGSGGGGSGSEVQLVQSGAEVKKPGSSVKVSCKASGYTFSSYVMHWVRQAPGQGLEWIGYIDPYNDGAKYAQKFQGRVTLTSDKSTSTAYMELSSLRSEDTAVYYCARGGPYGWYFDVWGQGTTVTVSS
light 2: DIVMTQTPLSLSVTPGQPASISCKASQSLDWEGDSDMNWYLQKPGQPPQLLIYGASNLESGVPDRFSGSGSGTDFTLKISRVEAEDVGVYYCQQSTEDPRTFGGGTKVEIKRTVAAPSVFIFPPSDEELKSGTATVVCLLNNFYPREAKVQWKVDNALQSGNSQESVTEQDSKDSTYSLSSYLELSKADYEKHKVYACEVTHQGLSSPVTKSFNRGEC
notes: Trispecific heterodimeric IgG1 / kappa; also called Y31W mutant; Hz x Hu [PD-1]; [TIGIT]; [LAG3]; TsAb (Y31W)
Usually Kd stands for a measure of binding affinity in units of concentration. Low values mean higher affinity, high ones lower affinity. B1: the Kd with human LAG-3 (60AXE) was found to be 0.023 nM; in experiment [1] it was 0.289 nM; with human TIGIT (94AGV), 1.09 nM.

B2: Humanized 08A IgG4 G56A (antibody, V domains shown)
VH: EVQLVQSGAEVKKPGASVKVSCKASGYTFTSYYLYWVRQAPGQGLEWIGGVNPSNAGTNFSEKFKSRVTLTVDTSISTAYMELSRLRSDDTAVYYCTRRDSNYDGGFDYWGQGTTVTVSS
VL: DIVMTQTPLSLSVTPGQPASISCRASKSVSTSGFSYLHWYLQKPGQPPQLLIFLASNLESGVPDRFSGSGSGTDFTLKISRVEAEDVGVYYCQHSWELPLTFGQGTKLEIKR
notes: IgG4 S228P / kappa; also called 89AVZ; Humanized x [PD-1_H] mAb (08A/HuPD1A-11 G56A) IgG4 S228P / Kappa
In the case of B2, the “KD (REF)/KD” value in experiment [2] is 0.6; in experiment [3] it was 2.4. Further, the values for the Kd in experiment [4] and in experiment [5] were 0.056 nM and 0.1 nM, respectively.

B3: Humanized 08A IgG4 Fab 100 S61N G56A (antibody, V domains shown)
VH: EVQLVQSGAEVKKPGASVKVSCKASGYTFTSYYLYWVRQAPGQGLEWIGGVNPSNAGTNFNEKFKSRVTLTVDTSISTAYMELSRLRSDDTAVYYCTRRLSHYDGGFDYWGQGTTVTVSS
VL: DIVMTQTPLSLSVTPGQPASISCRASKSVSTSGFSYLHWYLQKPGQPPQLLIFLSKYRSSGVPDRFSGSGSGTDFTLKISRVEAEDVGVYYCSQAYHLPLTFGQGTKLEIKR
notes: also called 25AVE
For the molecule B3, the “KD (REF)/KD” value was over 13 in experiment [2] and 5.7 in experiment [3]. Further, the Kd is under 0.0025 nM in experiment [4] and 0.042 nM in experiment [5].

B4: Humanized 08A IgG4 S61N G56A (antibody, V domains shown)
VH: EVQLVQSGAEVKKPGASVKVSCKASGYTFTSYYLYWVRQAPGQGLEWIGGVNPSNAGTNFNEKFKSRVTLTVDTSISTAYMELSRLRSDDTAVYYCTRRDSNYDGGFDYWGQGTTVTVSS
VL: DIVMTQTPLSLSVTPGQPASISCRASKSVSTSGFSYLHWYLQKPGQPPQLLIFLASNLESGVPDRFSGSGSGTDFTLKISRVEAEDVGVYYCQHSWELPLTFGQGTKLEIKR
notes: IgG4 S228P / kappa; also called 51AQK; Humanized x [PD-1_H] mAb (08A/HuPD1A-11 S61N VH G56A / VL) IgG4 S228P / Kappa
B4: the “KD (REF)/KD” value in experiment [2] came out at 1; in experiment [3], 4.2. For the same molecule, the results for the equilibrium dissociation constant (Kd) in experiment [4] and in experiment [5] were 0.033 nM and 0.057 nM, respectively.
